Experimental data from the nanobody polyreactivity screen of Harvey et al. (2022).

Assay: yeast display, Sf9 membrane polyspecificity reagent, FACS + sequencing; frameworks hold sequencing errors
Method in brief: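 A nanobody's polyreactivity label depends on the gate it was sorted from. Yeast display cells were stained with 10% biotinylated, detergent-solubilized Sf9 membrane reagent for 1 hour at 4 °C, enriched on streptavidin microbeads and sorted by FACS. The low and high (top ~1%) gates were set on anti-HA fluorescence for expression and streptavidin fluorescence for reagent binding.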

| Sequence | polyreactivity (PSR sort gate) |
| --- | --- |
| QVQLQESGGGLVQAGGSLRLSCASSGTISPLPAMGWYRQAPGKEREYVAGIDTGAITNYADSVKGRFTISRDNAKNTVYLQMNSLQPEDTAVYYCAVFPAAYDYYESYYTYWGQGTQVTVSS | low polyreactivity |
| QVQLVESGGGLVQAGGSLRISCAASGFTLEPNTMGWYRQAPWKERELVAGISWSGGSTYYADSVKGRFTISRDNAKNTVYLQMNSLKPEDTAVYYCNAPPVRRSIVYDRRDYWGQGTQVTVSS | low polyreactivity |
| QVQLVESGGGLVQAGGSLRLSCAASGITFTDYDMGWYRQAPGKERELVAAISNGGGSTYYADSVKGRFTISRDNAKNTVYLQMYSMKPEDTAVYYCAAERVPSWWVEWGVAQWDDYWGQGTQVTVSS | low polyreactivity |
| QVQLVESGGGLVQAGGSLRLSCAASGGIFLVNDMGWYRQAPGKERELFAAITSGGGTYYADSVKGRFTISRDNAKNTVYLQMNSLKPEDTAVYYCARDTYRQIVSNESYGYWGQGTQVTVSS | low polyreactivity |
| QVQLVESGGGLVQAGGSLRLSCAASGSIFYANTLGWYRQAPGTERELVAAINWSGGRTYYADSVKGRFTISRDNAKNTVYLQMNSLKPEDTAVYYCAASATYLYKYPVWGYDYWGQGTQVTVSS | high polyreactivity |
| QVQLVESGGGLVQAGGSLRLSCAATGRIFRYYTMGWYRQAPGKERELVAAITSSSGSTYYADSVKGRFTISRDNAKNTVYLQMNSLKPEDTAVYYCNAVRYTTQTPNVDYGYWGQGTQVTVSS | high polyreactivity |
| QVQVVESGGGLVQAGGSLRLSCASSGRTFGIYAMGWYRPAPGKESEWVASISWSGGRTYYADSVKGRFTISRDNAKNTVYLVMISLKPEDTAVYFCAARWYYVTPLRRYGYWGQGTQVTVSS | high polyreactivity |
| QVQLVESGGGLVQAGGSLRLSCAASGLTFVYYAMGWYRQAPGKERELVAAISESGTSTYYADSVKGRFTISRDNAKNTVYLQMNSLKPEDTAVYYCAAKDSYYEMDYWGQGTQVTVSS | high polyreactivity |
| QVQLVESGGGLVQAGGSLRLSCAASGRTFVPYAMGWYRQAPGKERELVAAITWSGGRTRYADSVKGRFTISRDNAKNTVYLQMNSLKPEDTAVYYCARYYWLYSSSYDYWGQGTQVTVSS | high polyreactivity |
| QVQLVESGGGLVQAGGSLRLSCAASGFTFRYYTLGWYRQAPGKERELVAVMRSTGSTNYADSVKGRFTISRDNAKNTVYLQMNSLKAEDTAVYYCNAARGWYNPPKYGSIGFDYWGQGTQVTVSS | high polyreactivity |
| QVQLVESGGGLVQAGGSLRLSCAASGFTFSSYALGWSRQAPGKERELVAAISTRGGSTYYADSVKGRFTISRDNAKNTVYLQRNSLKPEDTADYYCATGGRGGRRYEYWGQGTQVTVSS | low polyreactivity |
| QVQLVESGGGLVQAGGSLRLSCAASGSIFWAYAMGWYRQAPGKERELVAAISRGGTTTYADSVKGRFTISRDNAKNTVYLQMNSLKPEDTAVYYCARRAVYSKRRYDYWGQGTQVTVSS | low polyreactivity |
| QVQLVESGGGLVQAGGSLRLSCAASGFIFYYNAMGRYRQAPGKERELVATIRGSGGSTYYADSVKGRFTISRDNAKNTVYLQMNSLKPEDTAVYYCATTIYGLTSRLYYWGQGTQVTVSS | high polyreactivity |
| QVQLVESGGGLVQAGGSLRLSCAASGITFTGFAMGWYRQAPGKERELVAAITWSSGSTYYADSVKGRFTISRDNAKNTVYLQMNSLKPEDTAVYYCNAGYWYDGPDYIPEYDYWGQGTQVTVSS | low polyreactivity |
| QVQLVESGGGLVQAGGSLRLSCAASGFTFKQYGMGWYRQAPGKERELVASISYRGGSTHYADSVKGRFTISRDNAKNTVYLQMNSLKPEDTAVYYCAARVTSRTSIKGDYWGQGTQVTVSS | low polyreactivity |
| QVQLVESGGGLGQAGGSLRLSCAASGRTLGIYAMGWYRPAPGTERELVAAITNGDSTHYADSVKGRFTISRDNAKNTVYLQMNSLKPEDTAVYYCAAEDHYEGYGGYYWGQGTQVTVSS | low polyreactivity |
| QVQLVESGGGLVQAGGSLRLSCAASGRTFYDYDMGCDRQAPGKERELVAAISGGDSTYYADSVKGRFTISRDNAKNTVYLQMNSLKPEDTAVYYCAVTPRGLPYGAYLLYYWGQGTQVTVSS | low polyreactivity |
